Reference: patent US20080216185

Tested on: phiC31 integrase (Streptomyces phage phiC31?)
Test: cell_activity
Details: for activity: integration of attB plasmid

| Substance | activity (BG01v) [clones] | further results |
| --- | --- | --- |
| phiC31 attB (pB2H1-DEST derived plasmids) |  | activity (fold colonies over random integration) (114 vs 80 colonies with/without integrase, BG01v hESC): 1.4 |
| pseudo attP 2q35 | 2 |  |
| pseudo attP 6p11.2 (PRIM2A intron 5) | 5 |  |
| pseudo attP 9q31.2 |  | activity (BG01v and SA002): 3 clones |
| pseudo attP 13q32.3 (CLYBL intron 2) |  | activity (of 51 integrase-mediated clones, BG01v and SA002): 17 clones |
| pseudo attP 17q23.3 (TLK2/MRC2 intergenic) | 4 |  |
| pseudo attP 21q21.1 | 2 |  |
